US9988429B2, “Glucagon analogues” (Zealand Pharma A/S, priority 2013, dated 2018)
Starred links: 1 amine or outer side, 2 acyl side, 3 side chain; linkers in the order of their positions; H or OH if unused. Non-standard residues stand in square brackets, D forms with d. Groups on a side chain read outwards from the residue. *: point of attachment. γGlu = O=C(O)[C@H](CCC(=O)[*:2])N[*:1]; Palmitoyl = CCCCCCCCCCCCCCCC(=O)*; NMeS = CN[C@@H](CO)C(=O)O; Ac4c = NC1(C(=O)O)CCC1; Aib = CC(C)(N)C(=O)O

T1: endogenous GLP-1 receptor of a murine insulinoma cell line (murine, UniProt O35659 22-463)
T1 sequence (looked up): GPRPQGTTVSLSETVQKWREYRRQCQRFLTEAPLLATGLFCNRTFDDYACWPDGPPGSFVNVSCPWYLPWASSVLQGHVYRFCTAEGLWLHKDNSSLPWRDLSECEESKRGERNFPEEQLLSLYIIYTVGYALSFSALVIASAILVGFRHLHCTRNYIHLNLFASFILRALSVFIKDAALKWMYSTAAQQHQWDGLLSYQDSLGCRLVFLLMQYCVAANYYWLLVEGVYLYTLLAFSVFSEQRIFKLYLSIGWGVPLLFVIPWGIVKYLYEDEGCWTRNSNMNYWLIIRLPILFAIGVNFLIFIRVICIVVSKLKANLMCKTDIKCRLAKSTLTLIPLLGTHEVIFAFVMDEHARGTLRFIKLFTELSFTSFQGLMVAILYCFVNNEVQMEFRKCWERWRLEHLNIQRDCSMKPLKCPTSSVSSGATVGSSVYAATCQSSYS


Columns and labels:
[1] = molecular target: T2, human glucagon receptor (Glucagon-R) (Homo sapiens, UniProt P47871); test: Glucagon receptor efficacy assay (cAMP AlphaScreen, CHO cells); type: cell-based; details: cAMP formation, CHO cells expressing human Glucagon-R; read-out: EC50 hGCGR CHO-K1
T2 construct: expressed in transfected cells
T2 sequence (P47871 26-477): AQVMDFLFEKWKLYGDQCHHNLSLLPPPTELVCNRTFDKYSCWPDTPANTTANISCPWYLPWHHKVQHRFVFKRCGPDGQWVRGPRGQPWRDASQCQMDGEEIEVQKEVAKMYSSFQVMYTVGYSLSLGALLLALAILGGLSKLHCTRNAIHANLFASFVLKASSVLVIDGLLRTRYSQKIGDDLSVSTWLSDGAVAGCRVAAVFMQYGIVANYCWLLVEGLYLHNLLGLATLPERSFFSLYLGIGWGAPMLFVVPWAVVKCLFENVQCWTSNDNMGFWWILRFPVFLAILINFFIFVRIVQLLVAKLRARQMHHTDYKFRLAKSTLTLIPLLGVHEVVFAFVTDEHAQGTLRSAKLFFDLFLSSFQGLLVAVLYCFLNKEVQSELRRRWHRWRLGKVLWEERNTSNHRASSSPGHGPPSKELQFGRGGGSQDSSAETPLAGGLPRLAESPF
Protocol: The mammalian expression vectors encoding the Glucagon-R or the GLP-1-R were transfected into Chinese hamster ovary (CHO) cells by the Attractene method. Stably expressing clones were obtained by Zeocin selection (250 μg/mL) upon limited dilution of cells resistant to the selection pressure. […] One Glucagon-R expressing clone and one GLP-1-R expressing clone were chosen for compound profiling.
CHO cells expressing the human Glucagon-R, or human GLP-1-R were seeded 24 hours prior to the assay at 30,000 cells per well in 96-well microtiter plates in culture in 100 μl growth medium. On the day of analysis, growth medium was removed and the cells were washed once with 200 μl of assay buffer (Krebs-Ringer-buffer—KRBH). The buffer was removed and the cells were incubated for 15 min at room temperature in 10 μl KRBH (KRBH+10 mM HEPES, 5 mM NaHCO3, 0.1% (V/V) BSA) with 0.1 mM IBMX in deionized water containing increasing concentrations of test peptides. The reaction was stopped by the addition of lysis buffer (0.1% w/v BSA, 5 mM HEPES, 0.3% v/v Tween-20). After cell lysis for 10 min at room temperature, lysates were transferred to 384-well plates and 10 μl of acceptor/donorbead mixture as contained in the AlphaScreen™ cAMP Functional Assay Kit was added. After one hour of incubation at room temperature in the dark, the cAMP content was determined applying the AlphaScreen™ cAMP Functional Assay Kit from Perkin-Elmer according to manufacturer instructions. […] The GLP-1/glucagon ratio is calculated as defined earlier.

[2] = molecular target: human glucagon receptor (Glucagon-R) (human, UniProt P47871 26-477); test: cell-based or functional assay
Chain of human glucagon receptor (Glucagon-R) (human, UniProt P47871 26-477) (P47871 26-477): as above

[3] = molecular target: human glucagon-like peptide 1 receptor (GLP-1R) (human, UniProt P43220 24-463); test: cell-based or functional assay
[4] = molecular target: T1, endogenous GLP-1 receptor of a murine …; test: cell-based or functional assay
[5] = molecular target: endogenous glucagon receptor of primary rat hepatocytes (rat, UniProt P30082 27-485); test: cell-based or functional assay
Chain of endogenous glucagon receptor of primary rat hepatocytes (P30082 27-485): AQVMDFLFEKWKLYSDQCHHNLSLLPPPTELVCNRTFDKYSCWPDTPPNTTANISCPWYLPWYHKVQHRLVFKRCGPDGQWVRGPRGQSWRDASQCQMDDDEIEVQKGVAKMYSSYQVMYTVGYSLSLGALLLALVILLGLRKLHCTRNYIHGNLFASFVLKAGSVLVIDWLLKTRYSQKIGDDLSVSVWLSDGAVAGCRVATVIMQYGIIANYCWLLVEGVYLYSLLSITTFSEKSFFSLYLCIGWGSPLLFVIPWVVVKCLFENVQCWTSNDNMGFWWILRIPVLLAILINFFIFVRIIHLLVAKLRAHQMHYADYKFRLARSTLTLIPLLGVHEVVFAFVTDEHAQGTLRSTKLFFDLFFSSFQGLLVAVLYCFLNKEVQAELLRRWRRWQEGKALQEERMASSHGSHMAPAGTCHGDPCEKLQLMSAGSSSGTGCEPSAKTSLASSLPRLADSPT

| Molecule | EC50 [1] | EC50 hGCGR CHO-K1 [nM] (cAMP, AlphaScreen) [2] | EC50 hGLP-1R CHO-K1 [nM] (cAMP, AlphaScreen) [3] | EC50 [nM] (cAMP in murine insulinoma cell line) [4] | EC50 [nM] (inhibition of glycogen synthesis rate in primary rat hepatocytes) [5] |
| --- | --- | --- | --- | --- | --- |
| CCCCCCCCCCCCCCCC(=O)N[C@@H](CCC(=O)NCCCC[C@H](NC(=O)[C@H](CCC(=O)O)NC(=O)[C@H](CC(=O)O)NC(=O)[C@H](CC(C)C)NC(=O)[C@H](Cc1ccc(O)cc1)NC(=O)[C@H](CCCCN)NC(=O)[C@H](CO)NC(=O)[C@H](Cc1ccc(O)cc1)NC(=O)[C@H](CC(=O)O)NC(=O)[C@H](CO)NC(=O)[C@@H](NC(=O)[C@H](Cc1ccccc1)NC(=O)[C@@H](NC(=O)CNC(=O)[C@H](Cc1c[nH]cn1)NC(=O)C1(NC(=O)[C@@H](N)Cc2c[nH]cn2)CCC1)[C@@H](C)O)[C@@H](C)O)C(=O)N[C@@H](C)C(=O)N[C@@H](C)C(=O)N[C@@H](CCCCN)C(=O)N[C@@H](CC(=O)O)C(=O)N[C@@H](Cc1ccccc1)C(=O)N[C@H](C(=O)N[C@@H](CCC(=O)O)C(=O)N[C@@H](Cc1c[nH]c2ccccc12)C(=O)N[C@@H](CC(C)C)C(=O)N[C@@H](CCC(=O)O)C(=O)N[C@@H](CO)C(=O)N[C@@H](C)C(N)=O)[C@@H](C)CC)C(=O)O [Compound 15] | 0.1 nM | – | – | – | – |
| H-H[Ac4c]QGTFTSDYSKYLDEK([γGlu-Palmitoyl])AAKDFIEWLESA-NH2 (SMILES CCCCCCCCCCCCCCCC(=O)N[C@@H](CCC(=O)NCCCC[C@H](NC(=O)[C@H](CCC(=O)O)NC(=O)[C@H](CC(=O)O)NC(=O)[C@H](CC(C)C)NC(=O)[C@H](Cc1ccc(O)cc1)NC(=O)[C@H](CCCCN)NC(=O)[C@H](CO)NC(=O)[C@H](Cc1ccc(O)cc1)NC(=O)[C@H](CC(=O)O)NC(=O)[C@H](CO)NC(=O)[C@@H](NC(=O)[C@H](Cc1ccccc1)NC(=O)[C@@H](NC(=O)CNC(=O)[C@H](CCC(N)=O)NC(=O)C1(NC(=O)[C@@H](N)Cc2c[nH]cn2)CCC1)[C@@H](C)O)[C@@H](C)O)C(=O)N[C@@H](C)C(=O)N[C@@H](C)C(=O)N[C@@H](CCCCN)C(=O)N[C@@H](CC(=O)O)C(=O)N[C@@H](Cc1ccccc1)C(=O)N[C@H](C(=O)N[C@@H](CCC(=O)O)C(=O)N[C@@H](Cc1c[nH]c2ccccc12)C(=O)N[C@@H](CC(C)C)C(=O)N[C@@H](CCC(=O)O)C(=O)N[C@@H](CO)C(=O)N[C@@H](C)C(N)=O)[C@@H](C)CC)C(=O)O) [Compound 14: H-H-Ac4c-QGTFTSDYSKYLDE-K(Hexadecanoyl-isoGlu)-AAKDFIEWLESA-NH2] | – | 18.3 nM | 0.68 nM | 0.13 nM | 0.06 nM |
| H-H[Aib]QGTFTSDYSKYLDEK([γGlu-Palmitoyl])AAKDFIEWLEEE-NH2 (SMILES CCCCCCCCCCCCCCCC(=O)N[C@@H](CCC(=O)NCCCC[C@H](NC(=O)[C@H](CCC(=O)O)NC(=O)[C@H](CC(=O)O)NC(=O)[C@H](CC(C)C)NC(=O)[C@H](Cc1ccc(O)cc1)NC(=O)[C@H](CCCCN)NC(=O)[C@H](CO)NC(=O)[C@H](Cc1ccc(O)cc1)NC(=O)[C@H](CC(=O)O)NC(=O)[C@H](CO)NC(=O)[C@@H](NC(=O)[C@H](Cc1ccccc1)NC(=O)[C@@H](NC(=O)CNC(=O)[C@H](CCC(N)=O)NC(=O)C(C)(C)NC(=O)[C@@H](N)Cc1c[nH]cn1)[C@@H](C)O)[C@@H](C)O)C(=O)N[C@@H](C)C(=O)N[C@@H](C)C(=O)N[C@@H](CCCCN)C(=O)N[C@@H](CC(=O)O)C(=O)N[C@@H](Cc1ccccc1)C(=O)N[C@H](C(=O)N[C@@H](CCC(=O)O)C(=O)N[C@@H](Cc1c[nH]c2ccccc12)C(=O)N[C@@H](CC(C)C)C(=O)N[C@@H](CCC(=O)O)C(=O)N[C@@H](CCC(=O)O)C(=O)N[C@@H](CCC(=O)O)C(N)=O)[C@@H](C)CC)C(=O)O) [Compound 17: H-H-Aib-QGTFTSDYSKYLDE-K(Hexadecanoyl-isoGlu)-AAKDFIEWLEEE-NH2] | – | 0.08 nM | 0.27 nM | 0.21 nM | 2.26 nM |

More lines, now with the values ahead:

| EC50 [1] | EC50 hGCGR CHO-K1 [nM] (cAMP, AlphaScreen) [2] | EC50 hGLP-1R CHO-K1 [nM] (cAMP, AlphaScreen) [3] | EC50 [nM] (cAMP in murine insulinoma cell line) [4] | EC50 [nM] (inhibition of glycogen synthesis rate in primary rat hepatocytes) [5] | Molecule |
| --- | --- | --- | --- | --- | --- |
| – | 3.19 nM | 0.21 nM | 0.14 nM | 4 nM | H-HPQGTFTSDYSKYLDEK([γGlu-Palmitoyl])AAKDFIEWLESA-NH2 (SMILES CCCCCCCCCCCCCCCC(=O)N[C@@H](CCC(=O)NCCCC[C@H](NC(=O)[C@H](CCC(=O)O)NC(=O)[C@H](CC(=O)O)NC(=O)[C@H](CC(C)C)NC(=O)[C@H](Cc1ccc(O)cc1)NC(=O)[C@H](CCCCN)NC(=O)[C@H](CO)NC(=O)[C@H](Cc1ccc(O)cc1)NC(=O)[C@H](CC(=O)O)NC(=O)[C@H](CO)NC(=O)[C@@H](NC(=O)[C@H](Cc1ccccc1)NC(=O)[C@@H](NC(=O)CNC(=O)[C@H](CCC(N)=O)NC(=O)[C@@H]1CCCN1C(=O)[C@@H](N)Cc1c[nH]cn1)[C@@H](C)O)[C@@H](C)O)C(=O)N[C@@H](C)C(=O)N[C@@H](C)C(=O)N[C@@H](CCCCN)C(=O)N[C@@H](CC(=O)O)C(=O)N[C@@H](Cc1ccccc1)C(=O)N[C@H](C(=O)N[C@@H](CCC(=O)O)C(=O)N[C@@H](Cc1c[nH]c2ccccc12)C(=O)N[C@@H](CC(C)C)C(=O)N[C@@H](CCC(=O)O)C(=O)N[C@@H](CO)C(=O)N[C@@H](C)C(N)=O)[C@@H](C)CC)C(=O)O) [Compound 13: H-HPQGTFTSDYSKYLDE-K(Hexadecanoyl-isoGlu)-AAKDFIEWLESA-NH2] |
| – | 0.24 nM | 0.92 nM | 0.52 nM | 5.4 nM | H-H[NMeS]QGTFTSDYSKYLDSK([γGlu-Palmitoyl])AAHDFVEWLLSA-NH2 (SMILES CCCCCCCCCCCCCCCC(=O)N[C@@H](CCC(=O)NCCCC[C@H](NC(=O)[C@H](CO)NC(=O)[C@H](CC(=O)O)NC(=O)[C@H](CC(C)C)NC(=O)[C@H](Cc1ccc(O)cc1)NC(=O)[C@H](CCCCN)NC(=O)[C@H](CO)NC(=O)[C@H](Cc1ccc(O)cc1)NC(=O)[C@H](CC(=O)O)NC(=O)[C@H](CO)NC(=O)[C@@H](NC(=O)[C@H](Cc1ccccc1)NC(=O)[C@@H](NC(=O)CNC(=O)[C@H](CCC(N)=O)NC(=O)[C@H](CO)N(C)C(=O)[C@@H](N)Cc1c[nH]cn1)[C@@H](C)O)[C@@H](C)O)C(=O)N[C@@H](C)C(=O)N[C@@H](C)C(=O)N[C@@H](Cc1c[nH]cn1)C(=O)N[C@@H](CC(=O)O)C(=O)N[C@@H](Cc1ccccc1)C(=O)N[C@H](C(=O)N[C@@H](CCC(=O)O)C(=O)N[C@@H](Cc1c[nH]c2ccccc12)C(=O)N[C@@H](CC(C)C)C(=O)N[C@@H](CC(C)C)C(=O)N[C@@H](CO)C(=O)N[C@@H](C)C(N)=O)C(C)C)C(=O)O) [Compound 2: H-H-NMeSer-QGTFTSDYSKYLDS-K(Hexadecanoyl-isoGlu)-AAHDFVEWLLSA-NH2] |
| – | 0.12 nM | 0.31 nM | 0.32 nM | 0.37 nM | H-H[Ac4c]QGTFTSDYSKYLDSK([γGlu-Palmitoyl])AAHDFVEWLLSA-NH2 (SMILES CCCCCCCCCCCCCCCC(=O)N[C@@H](CCC(=O)NCCCC[C@H](NC(=O)[C@H](CO)NC(=O)[C@H](CC(=O)O)NC(=O)[C@H](CC(C)C)NC(=O)[C@H](Cc1ccc(O)cc1)NC(=O)[C@H](CCCCN)NC(=O)[C@H](CO)NC(=O)[C@H](Cc1ccc(O)cc1)NC(=O)[C@H](CC(=O)O)NC(=O)[C@H](CO)NC(=O)[C@@H](NC(=O)[C@H](Cc1ccccc1)NC(=O)[C@@H](NC(=O)CNC(=O)[C@H](CCC(N)=O)NC(=O)C1(NC(=O)[C@@H](N)Cc2c[nH]cn2)CCC1)[C@@H](C)O)[C@@H](C)O)C(=O)N[C@@H](C)C(=O)N[C@@H](C)C(=O)N[C@@H](Cc1c[nH]cn1)C(=O)N[C@@H](CC(=O)O)C(=O)N[C@@H](Cc1ccccc1)C(=O)N[C@H](C(=O)N[C@@H](CCC(=O)O)C(=O)N[C@@H](Cc1c[nH]c2ccccc12)C(=O)N[C@@H](CC(C)C)C(=O)N[C@@H](CC(C)C)C(=O)N[C@@H](CO)C(=O)N[C@@H](C)C(N)=O)C(C)C)C(=O)O) [Compound 4: H-H-Ac4c-QGTFTSDYSKYLDS-K(Hexadecanoyl-isoGlu)-AAHDFVEWLLSA-NH2] |
